Measured values reported in CN114685664A (UNIV INNER MONGOLIA AGRI, dated 2022).

T1: 人CD20胞外区多肽 (human)
T1 construct: Synthetic 47-residue peptide of the extracellular region of human CD20 (Sangon); also called CD20多肽; CD20抗原
T1 peptide: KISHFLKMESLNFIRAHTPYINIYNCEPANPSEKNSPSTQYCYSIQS

T2: Raji细胞表面CD20蛋白 (human, UniProt P11836 1-297)
T2 construct: whole, on cells; Raji cells used as CD20-positive cells; also called Raji细胞表面CD20分子
T2 sequence (looked up): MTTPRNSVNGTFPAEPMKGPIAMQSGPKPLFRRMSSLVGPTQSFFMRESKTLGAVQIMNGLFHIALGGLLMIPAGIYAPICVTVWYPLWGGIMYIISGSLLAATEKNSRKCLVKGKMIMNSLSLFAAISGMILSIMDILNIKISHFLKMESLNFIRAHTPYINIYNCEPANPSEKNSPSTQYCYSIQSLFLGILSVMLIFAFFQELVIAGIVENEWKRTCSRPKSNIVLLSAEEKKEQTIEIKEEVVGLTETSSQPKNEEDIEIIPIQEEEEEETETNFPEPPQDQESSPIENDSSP

B1: sdAb11 (抗CD20单域重链抗体) (VHH)
VHH: DVQLVESGGGLVQPGGSLRLSCTAPGFTSNNCGMDWWRQAAGKQREWVSSIATDGSTSYADSVKGRFTISKDKAKDTVFLQMNSLKPEDTAMYNCAMRRWGWGCLGRLWQSDFGYWGQGTQVTVSS
notes: Expressed in E. coli BL21(DE3) from VHH-pET-25b-SBP and purified on Ni-NTA; also called CD20单域抗体; Anti-CD20 sdAb; not shown: tags from vector pET-25b-SBP (His tag detected with anti-His antibody; SBP)
B2: Anti-CD20/CD3 BsNb (bispecific antibody)
chain: EVQLLEEVQLVESGGGLVQPGGSLRLSCAASGFTFDDYGMSWVRQAPGKWLEWVSDISWNGGSTYYADSVKGRFTISRDNAENTLYLQMNSLKPDDTAVYYCAKMGEGGWGANDYWGQGTQVTVSSSGGGGSGGGGSGGGGSMAQVQLQMADVQLVESGGGLVQPGGSLRLSCTAPGFTSNNCGMDWWRQAAGKQREWVSSIATDGSTSYADSVKGRFTISKDKAKDTVFLQMNSLKPEDTAMYNCAMRRWGWGCLGRLWQSDFGYWGQGTQVTVSS
notes: Single chain: anti-CD20 sdAb, linker, anti-CD3 sdAb; also called CD20 sdAb-linker-CD3 sdAb; 抗CD20和CD3双特异性单域抗体

Assays:
人CD20胞外区多肽 [1] = molecular target: T1, 人CD20胞外区多肽; test: phage ELISA, CD20 extracellular peptide coated at 2.5 μg/mL, OD450
Raji细胞表面CD20蛋白 [2] = molecular target: T2, Raji细胞表面CD20蛋白; test: immunofluorescence on fixed Raji cells, sdAb 10 μg/mL, fluorescent anti-His detection
Raji细胞表面CD20蛋白 [3] = molecular target: T2, Raji细胞表面CD20蛋白; test: flow cytometry, FITC-labelled BsNb 100 μg/mL on Raji cells
人CD20胞外区多肽 [4] = molecular target: T1, 人CD20胞外区多肽; test: ELISA, CD20 extracellular peptide coated at 2.5 μg/mL, BsNb 30 to 5 μg/mL, HRP anti-His detection, OD450

Binder	binding result (人CD20胞外区多肽 [1])	binding result (Raji细胞表面CD20蛋白 [2])	binding result (Raji细胞表面CD20蛋白 [3])	binding result (人CD20胞外区多肽 [4])
B1	binds	binds		
B2			binds	binds
